Experimental data taken from the supplement of paper PMC12636428.

Test system: Saccharomyces cerevisiae
Experiment: transcriptional activation domain activity (GFP:mCherry ratio, weighted mean of sorted bins, harmonized to initial dataset scale) (arbitrary fluorescence ratio units); higher = stronger transcriptional activation
Conditions: beta-estradiol 1 µM; induction time 4 h
Method in brief: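 Barcoded tiles were sequenced after cells were sorted into 8 bins by GFP:mCherry ratio. Before sorting, cultures had been diluted 1:5 into SC with 1 uM beta-estradiol and held for 4 hours at 30 °C. The tiles were fused to an estradiol-inducible synthetic transcription factor and integrated at URA3 in yeast diploids carrying a GFP reporter. Activation activity is the read-weighted mean of bin median fluorescence, averaged over barcodes and linearly mapped onto the initial dataset scale, and tiles under 50 reads were left out.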

Sequence | transcriptional activation domain activity
RNILLFTMVADGESSLVIWSIFYHFFLDDNSLGLLLAQCRKLVQISNDMQTWM | 58900
RNLAAAAAGATAVGLAAKAIHDHRARSRSRSSSASGSDRGHRHNAVLGLGAAG | 42100
RNLGKLCSLHIEIRDPDLHRWNLVTLILVVHTLKSPFLERVCISFATYANIYG | 42300
RNLMVIVLVVGNLRLMIENLQKYGVLICLHCHDFRRSDILLGLGLYFLIPCHL | 64000
RNLMVIVLVVGNLRLVIENIQKYGVLICIRCHDFRQHDVMLGLLLYFLIPCHL | 53400
RNMRALRKTWQSSASEDGGGGGEGDEHPHLEDLEYTSREWGAFAQGLKLLAVS | 70800
RNSSLEEEDQVVAEGEVVGAAEEEGGEGEGREEVVVTEGREDMAVVGMAGMAD | 35400
RNVEDCAATNGSLVPISMPGGKREENDRRVPRANVSKVIILGSGGLSIGQAGE | 44500
RNVIRGCRKPLSSRYVFLMSVTRLVIPLYFYVCPYNIIALKPSKWIWLLVLYV | 62600
RNVYLSRFWYLSFYSGNQLRRDLNVIVGVGKNWNLPSWWAPILRYIAAPILSI | 75600
RPAAVLARQRERERARDARARAVRGAAPVAAAVAVRRVARHVCVACACAAAAA | 60400
RPAPAKSKARSSRKAVVEEPEIPQAQEEEEDVKPVIRGRKKRVSIAEPEKPKR | 35300
RPDVVLIQAGLWARFWLFIVISHALLEYHTFADGICLCYVSTVVFLIRHAKLW | 68100
RPEEAPSTDEEESRGECWSEGKLCLENYMRLNDLEPENSDPEQLAHVKELLEK | 47500
RPFLLNCKDINQFTNLIWERIRITNGTKMYWVWQHLRCVVMFFTLQPNQRILL | 83700
RPKVQPFWVIDLFVPYRPLLSFVSDLYFAYQAWTQLTGLTVTLFYFSIWKLAL | 58500
RPLSEASRDLALPSVTRVWCDEKDNIFYMQDVNFVTDITKVLLVSVLSTVARC | 47600
RPPPPSAAAEPAADAPATEEAKPGHEKKEKTEKKPKEKAKKAEKKEEVCAAAT | < 6570
RPPPRPPPQTPASPSPSPTSTTPPRSPSASRASPARPHPPSGRRTRTTRAPRR | 56300
RPPVLRLRALTALITVLILLLAAIVVLYRFSERSLLYQTAFIYQAKIPYFNSI | 24500
RPQSKERGGRREDGAGTDEGDSSTHPSCSSHVGRQEGVFQTVQCKHYWVVKWE | 49900
RPSGASTPVQPTPEPDNKKRRRGKGGDDAETDGKPVKKAKRGRKPKVVQEPKV | 33200
RPSLASSTATATATTTRPAADAASTTRAPRASLAPSTKPTTTRPAVAAAATRT | 33500
RPSLGCILFILIRYVSIIVMVVSNYGVLSTSFTEKVCERYFMIAPVFKVIQTM | 50600
RPSSAVVHAPRSKRAALRPSAPARCPPSSSSSSSPSTSPSCRRPASPTTSTCP | 30700
RPSSPPRRPPPSSPSPAPPSKSPATCRSKTSPWGHGRCRPRPPARAPASGTAP | 45200
RPVLDVALAAGEEDLSSKPRCQRCRKSKKGCDRQRPCGRCRDAGIGIEGCISE | 31500
RPWRWSFGVYVLCRTLALGGIISAFVGFSPFNEFHCDVWLRFLLVFSWFAIAS | 66600
RPYLLLLHLLCSFFFFESISIILAIAFQLLLIRASSHMIIRMLLQVYCFLSMR | 75900
RQAAMPKRKSPEEEDEEDEEEAPAKPAAKKAKTATAANGEKKSAGRGRPKKAA | 31700
